Experimental data published in patent US20100330066A1.

Molecular target: murine BAFF (murine) (UniProt Q9WU72)
Assay: cell-based or functional assay

Sequence of UniProt Q9WU72 (Q9WU72 127-309 limits assumed): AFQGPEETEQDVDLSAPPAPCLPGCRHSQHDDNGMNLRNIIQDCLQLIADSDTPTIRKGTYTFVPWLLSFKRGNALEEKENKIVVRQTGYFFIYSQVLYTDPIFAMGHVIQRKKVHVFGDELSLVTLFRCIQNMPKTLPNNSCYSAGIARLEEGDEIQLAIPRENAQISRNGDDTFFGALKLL

With “BAFF-R:Fc (BAFF-R Fc fusion protein) (from UniProt Q96RJ3 2-71)” the B cell surface IgG2a/b expression (MFI, flow cytometry) in wildtype mice after BAFF-R:Fc treatment was 1.7 fold and the NF-κB2 transcription in spleen of wildtype mice, 2 days after i.p. BAFF-R:Fc (Affymetrix microarray) was 1.82 fold.
